Test results taken from US20070014720A1 (published 2007).
Changes are numbered by the printed parent chain. Values belong to the binder of their own block, whether it stands above or below them.

What was measured:
[1] = biological target: T1, human CD20 (human, UniProt P11836 1-297); assay: FACS KD on SB cells expressing CD20 (GMF against mAb concentration, nonlinear fit)
T1 construct: whole, on cells; In all assays CD20 stood on cells; also called CD20 antigen
T1 sequence (looked up): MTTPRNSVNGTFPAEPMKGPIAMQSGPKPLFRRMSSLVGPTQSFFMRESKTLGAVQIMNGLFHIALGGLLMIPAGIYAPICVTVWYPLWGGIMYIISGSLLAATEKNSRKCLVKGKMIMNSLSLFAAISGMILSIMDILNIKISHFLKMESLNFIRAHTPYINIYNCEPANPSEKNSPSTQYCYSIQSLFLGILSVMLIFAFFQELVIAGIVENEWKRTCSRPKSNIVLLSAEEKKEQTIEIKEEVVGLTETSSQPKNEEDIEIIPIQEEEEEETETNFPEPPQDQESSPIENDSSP
Description: The affinity of purified antibodies against CD20 (mAbs 1.1.2, 1.2.1, 2.1.2, 1.3.3, 1.5.3, 1.10.3.1, 1.13.2), Rituximab (positive control), and B1 was determined by FACS. Briefly, SB cells expressing CD20 were resuspended in FACS buffer (2% FBS, 0.05% NaN₃) at a concentration of approximately 5 million cells/mL. HSB cells were also resuspended in FACS buffer at a concentration of approximately 9 million cells/mL. Cells were kept on ice. Purified antibodies were serially diluted in filtered 1×PBS (2×) across 11 wells in 96-well plates. The twelfth well in each row contained buffer only. 1×PBS and cells were added to each mAb well such that the final volume was […] and each well contained approximately 375,000 cells. The final molecular concentration ranges for the mAbs were as follows:
Plates were placed on a plate shaker for 3 hours at 4° C., then spun and washed 3× with PBS. 200 μL of 145 nM Cy5 goat α-human polyclonal antibody was added to each well, and 200 μL of 192 nM Cy5 goat α-mouse polyclonal antibody was added to the cells complexed with B1 antibody. Plates were then incubated for 40 minutes at 4° C., then spun and washed 3× with PBS.
The Geometric Mean Fluorescence (GMF) of 10,000 cells for each mAb concentration was determined using a FACSCalibur instrument. No significant nonspecific binding (no significant signal) was apparent from the HSB cells. In each row containing the SB cells, the signal from the twelfth well (containing buffer only) was subtracted from the signal from the first 11 wells. A nonlinear plot of GMF as a function of molecular mAb concentration was fit using Scientist software using the equation: […]

[2] = biological target: T1, human CD20; assay: cell-based or functional assay

B1: mAb 1.13.2 (antibody, human IgG1, V domains shown)
VH: EVQLVQSGAEVKKPGESLKISCKGSGYSFTNYWIGWVRQMPGKGLEWMGIIYPGDSDTRYSPSFQGQVTISADKSISTAYLQWSSLKASDTAMYYCARQGDYYHYSGMDVWGQGTTVTVSS
VL: DVVMTQSPLSLSVTLGQPASISCRSSQSLVYNDGDTYLNWFQQRPGQSPRLLIYKVSNWDSGVPDRFSGSGSGTDFTLKVSRVEAEDVGVYYCMQGTHWPLTFGGGTKVEIK
notes: Human IgG1 kappa; also called 1.13.1; 50-001H1_13_1
Kd [1]: 23.6 nM
% Lysis Daudi 0.001 µg/ml ADCC [2]: 24%
% Lysis Daudi 1 µg/ml ADCC [2]: 74%
% Lysis Raji 0.001 µg/ml ADCC [2]: 5%
% Lysis Raji 1 µg/ml ADCC [2]: 21%
% Lysis Ramos 0.001 µg/ml ADCC [2]: 4%
% Lysis Ramos 1 µg/ml ADCC [2]: 33%
EC50 µg/ml Daudi CDC [2]: ~10 µg/mL
EC50 µg/ml Raji CDC [2]: 3.54 µg/mL
EC50 µg/ml Ramos Apoptosis Alamar Blue [2]: 0.291 µg/mL
EC50 µg/ml Ramos Apoptosis Annexin V [2]: 2.97 µg/mL
EC50 µg/ml Ramos Apoptosis Cell Titer Glo [2]: 1.44 µg/mL
EC50 µg/ml Ramos Apoptosis WST-1 [2]: 0.096 µg/mL
EC50 µg/ml Ramos CDC [2]: 6.82 µg/mL

B2: mAb 1.6.2 (antibody, human IgG1, V domains shown)
VH: B1 VH with N31S, Q99H, Y103S, H104N, Y105I, S106D, G107A, M108F, V110I, T116M
VL: DVVMTQSPLSLPVTLGQPASISCRSSQSLVYSDGNAYLNWFQQRPGQSPRRLIYKVSNWDSGVPDRFSGSGSGTDFTLKIRRVEAEDVGAYYCMQGIHCTFGPGTKVHIK
% Lysis Daudi 0.001 µg/ml ADCC [2]: 77%
% Lysis Daudi 1 µg/ml ADCC [2]: 79%
% Lysis Raji 0.001 µg/ml ADCC [2]: 5%
% Lysis Raji 1 µg/ml ADCC [2]: 36%
% Lysis Ramos 0.001 µg/ml ADCC [2]: 3%
% Lysis Ramos 1 µg/ml ADCC [2]: 43%
EC50 µg/ml Daudi CDC [2]: ~10 µg/mL
EC50 µg/ml Raji CDC [2]: 0.38 µg/mL
EC50 µg/ml Ramos Apoptosis Alamar Blue [2]: 0.16 µg/mL
EC50 µg/ml Ramos Apoptosis Annexin V [2]: 0.67 µg/mL
EC50 µg/ml Ramos Apoptosis Cell Titer Glo [2]: 0.476 µg/mL
EC50 µg/ml Ramos Apoptosis WST-1 [2]: 0.0393 µg/mL
EC50 µg/ml Ramos CDC [2]: 0.31 µg/mL

B3: mAb 2.4.1 (antibody, human IgG1, V domains shown)
VH: EVQLVQSGAEVKKPGESLKISCKGSGYSFTNYWIGWVRQMPGKGLEWMGIIYPGDSDTRYSPSFQGQVTISADKSISTAYLQWSSLKASDTAMYYCARHGDYYASESSAFDIWGQGTMVTVSS
VL: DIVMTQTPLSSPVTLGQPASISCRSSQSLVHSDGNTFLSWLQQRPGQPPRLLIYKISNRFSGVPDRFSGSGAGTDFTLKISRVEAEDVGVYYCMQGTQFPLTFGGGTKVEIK
% Lysis Daudi 0.001 µg/ml ADCC [2]: 36%
% Lysis Daudi 1 µg/ml ADCC [2]: 76%
% Lysis Raji 0.001 µg/ml ADCC [2]: 9%
% Lysis Raji 1 µg/ml ADCC [2]: 24%
% Lysis Ramos 0.001 µg/ml ADCC [2]: -3%
% Lysis Ramos 1 µg/ml ADCC [2]: 46%
EC50 µg/ml Daudi CDC [2]: ~10 µg/mL
EC50 µg/ml Raji CDC [2]: 3.72 µg/mL
EC50 µg/ml Ramos Apoptosis Alamar Blue [2]: 0.112 µg/mL
EC50 µg/ml Ramos Apoptosis Annexin V [2]: 4.68 µg/mL
EC50 µg/ml Ramos Apoptosis Cell Titer Glo [2]: 0.983 µg/mL
EC50 µg/ml Ramos Apoptosis WST-1 [2]: 0.042 µg/mL
EC50 µg/ml Ramos CDC [2]: 3.12 µg/mL

Second part, the binder after the results:

Kd [1]: 11.2 nM
B4: mAb 1.10.3.1 (antibody, human IgG1, V domains shown)
VH: EVQLVQSGAEVKKPGESLKISCKGSGYSFTSYWIGWVRQMPGKGLEWMGIIYPGDSDTRYSPSFQGQVTISADKSISTAYLQWSSLKASDTAMYYCARMGDFWSGYYTRGMDVWGQGTTVTVSS
VL: EIVMTQSPATLSVSPGERATLSCRASQSVSSNLAWYQQKPGQAPRLLISGASTRATGIPARFSGSGSGTEFTLTISSLQSEDFAVYYCHQYNDWSLTFGGGTKVEIK
notes: Human IgG1 kappa; also called 50-001H1_10_3_1

% Lysis Daudi 0.001 µg/ml ADCC [2]: 17%
% Lysis Daudi 1 µg/ml ADCC [2]: 63%
% Lysis Raji 0.001 µg/ml ADCC [2]: 3%
% Lysis Raji 1 µg/ml ADCC [2]: 10%
% Lysis Ramos 0.001 µg/ml ADCC [2]: 2%
% Lysis Ramos 1 µg/ml ADCC [2]: 29%
EC50 µg/ml Daudi CDC [2]: 9.39 µg/mL
EC50 µg/ml Raji CDC [2]: 1.31 µg/mL
EC50 µg/ml Ramos Apoptosis Alamar Blue [2]: 0.026 µg/mL
EC50 µg/ml Ramos Apoptosis Annexin V [2]: 0.191 µg/mL
EC50 µg/ml Ramos Apoptosis Cell Titer Glo [2]: 0.0989 µg/mL
EC50 µg/ml Ramos Apoptosis WST-1 [2]: 0.0383 µg/mL
EC50 µg/ml Ramos CDC [2]: 2.07 µg/mL
B5: mAb 1.12.3 (antibody, human IgG1, V domains shown)
VH: EVQLVQSGAEVKKPGESLKISCKGSGYSFTSYWIGWVRQMSGKGLEWMGIIYPGDSDTRYSPSFQGQVTISADKSISTAYLQWSSLKASDTAIYYCARHPSYGSGSPNFDYWGQGTLVTVSS
VL: DIVMTQTPLSSPVTLGQPASISCRSSQSLVYSDGNTYLSWLQQRPGQPPRLLFYKISNRFSGVPDRFSGSGAGTDFTLKISRVEAEDVGVYYCVQATQFPLTFGGGTKVEIK
